Paper doi:10.1101/595835, “An oligomeric state-dependent switch in FICD regulates AMPylation and deAMPylation of the chaperone BiP” (bioRxiv, 2019)

Assays:
[1] = target: the molecule itself; assay: SEC; analytical SEC, SEC-3 HPLC column, HKMC buffer (50 mM HEPES-KOH pH 7.4, 150 mM KCl, 10 mM MgCl2, 1 mM CaCl2), 25 °C; FICD at 20 µM, or 0.2-50 µM after 16 h at 25 °C (Figure S1D-E); approximate Kd of dimer to monomers from elution peak times
[2] = target: T1, biotinylated AviTag-haBiP^V461F(19-654), AMPylated (Chinese hamster, UniProt G3I8R9 19-654, V461F, AMP on Thr518 (AMPylation); biotin on the AviTag); assay: BLI; biotinylated AMPylated or unmodified BiP immobilised on streptavidin biosensors; FICD His363Ala variants in solution at 250 nM; HKM plus 0.05% Triton X-100, 30 °C (Figure S2G); details: both partners purified
T1 construct: Chinese hamster BiP (haBiP), aa 19-654; also called BiP-AMP; AMPylated BiP; not shown: GST, N-terminal, cleaved; AviTag, N-terminal, kept

[3] = target: T2, biotinylated AviTag-haBiP(28-635)^T229A-V461F (Chinese hamster, UniProt G3I8R9 28-635, T229A | V461F, biotin on the AviTag); assay: BLI; biotinylated BiP^T229A-V461F(28-635) immobilised on streptavidin biosensors and pre-saturated with ATP (2 mM); FICD His363Ala variants at 250 nM, without or with nucleotide (ATP 8 mM, ADP 2 mM); HKM plus 0.05% Triton X-100, 30 °C; details: both partners purified
T2 construct: Chinese hamster BiP (haBiP), aa 28-635; the assay tells the nucleotide state; also called BiP^T229A-V461F:Apo; BiP:ATP; not shown: GST, N-terminal, cleaved; AviTag, N-terminal, kept
T2 sequence (G3I8R9 28-635 T229A/V461F): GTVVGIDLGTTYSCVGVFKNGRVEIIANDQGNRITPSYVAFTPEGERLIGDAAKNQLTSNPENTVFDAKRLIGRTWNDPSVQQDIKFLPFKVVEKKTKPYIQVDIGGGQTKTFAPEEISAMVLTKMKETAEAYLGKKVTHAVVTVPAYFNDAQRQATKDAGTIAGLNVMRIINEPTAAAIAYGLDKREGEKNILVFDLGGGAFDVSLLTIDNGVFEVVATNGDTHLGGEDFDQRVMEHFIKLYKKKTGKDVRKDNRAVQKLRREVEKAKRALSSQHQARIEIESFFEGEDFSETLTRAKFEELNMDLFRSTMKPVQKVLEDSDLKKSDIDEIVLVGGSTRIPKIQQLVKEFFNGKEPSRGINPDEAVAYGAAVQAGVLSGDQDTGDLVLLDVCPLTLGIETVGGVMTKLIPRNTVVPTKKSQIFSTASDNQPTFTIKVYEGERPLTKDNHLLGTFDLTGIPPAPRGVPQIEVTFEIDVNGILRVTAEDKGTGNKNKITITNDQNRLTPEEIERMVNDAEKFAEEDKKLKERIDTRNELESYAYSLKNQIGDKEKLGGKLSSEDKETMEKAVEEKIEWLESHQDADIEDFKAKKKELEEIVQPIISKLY

T1 sequence (G3I8R9 19-654 V461F): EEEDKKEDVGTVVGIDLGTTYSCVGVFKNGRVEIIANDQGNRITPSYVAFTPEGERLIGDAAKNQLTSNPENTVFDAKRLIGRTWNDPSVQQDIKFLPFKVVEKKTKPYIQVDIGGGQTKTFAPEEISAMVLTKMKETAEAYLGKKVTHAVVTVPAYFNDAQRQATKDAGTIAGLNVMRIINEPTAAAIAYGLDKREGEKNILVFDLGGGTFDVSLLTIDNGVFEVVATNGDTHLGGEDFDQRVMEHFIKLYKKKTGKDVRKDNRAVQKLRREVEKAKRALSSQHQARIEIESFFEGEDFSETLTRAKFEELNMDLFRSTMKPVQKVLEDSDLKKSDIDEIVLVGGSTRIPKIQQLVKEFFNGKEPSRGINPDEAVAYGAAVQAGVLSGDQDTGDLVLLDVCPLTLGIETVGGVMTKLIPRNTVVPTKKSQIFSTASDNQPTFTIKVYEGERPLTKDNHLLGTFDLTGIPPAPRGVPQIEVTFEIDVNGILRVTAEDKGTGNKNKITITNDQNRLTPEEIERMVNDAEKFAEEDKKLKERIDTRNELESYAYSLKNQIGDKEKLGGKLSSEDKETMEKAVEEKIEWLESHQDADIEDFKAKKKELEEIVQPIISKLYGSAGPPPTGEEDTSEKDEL

Binder	Kd [1] [µM]	binding result [1]	also measured
FICD^E242A (aa 104-445) (domain or fragment, human, UniProt Q9BVA6 104-445, looked up, human FICD (HYPE), aa 104-445; also called dimer relay mutant; source: E. coli T7 Express lysY/I^q, purified (Ni-NTA, on-column Ulp1 cleavage, anion exchange, SEC); not shown: His6, N-terminal, cleaved; Smt3, N-terminal, cleaved) LEARAALNQALEMKRQGKREKAQKLFMHALKMDPDFVDALTEFGIFSEEDKDIIQADYLYTRALTISPYHEKALVNRDRTLPLVEEIDQRYFSIIDSKVKKVMSIPKGNSALRRVMEETYYHHIYHTVAIEGNTLTLSAIRHILETRYAVPGKSLEEQNEVIGMHAAMKYINTTLVSRIGSVTISDVLEIHRRVLGYVDPVEAGRFRTTQVLVGHHIPPHPQDVEKQMQEFVQWLNSEEAMNLHPVEFAALAHYKLVYIHPFIDGNGRTSRLLMNLILMQAGYPPITIRKEQRSDYYHVLEAANEGDVRPFIRFIAKCTETTLDTLLFATTEYSVALPEAQP	< 0.4		
non-oxidised FICD^A252C-C421S (aa 104-445) (domain or fragment, human, UniProt Q9BVA6 104-445, looked up, human FICD (HYPE), aa 104-445; also called non-disulphide-bonded FICD^A252C-C421S; UK 2219; source: E. coli, purified; separate preparation not subjected to oxidation with glutathione; not shown: His6, N-terminal, cleaved; Smt3, N-terminal, cleaved) LEARAALNQALEMKRQGKREKAQKLFMHALKMDPDFVDALTEFGIFSEEDKDIIQADYLYTRALTISPYHEKALVNRDRTLPLVEEIDQRYFSIIDSKVKKVMSIPKGNSALRRVMEETYYHHIYHTVAIEGNTLTLSEIRHILETRYCVPGKSLEEQNEVIGMHAAMKYINTTLVSRIGSVTISDVLEIHRRVLGYVDPVEAGRFRTTQVLVGHHIPPHPQDVEKQMQEFVQWLNSEEAMNLHPVEFAALAHYKLVYIHPFIDGNGRTSRLLMNLILMQAGYPPITIRKEQRSDYYHVLEAANEGDVRPFIRFIAKSTETTLDTLLFATTEYSVALPEAQP		binds	
FICD^C421S (aa 104-445) (domain or fragment, human, UniProt Q9BVA6 104-445, looked up, human FICD (HYPE), aa 104-445; also called cysteine-free FICD^C421S; UK 2161; source: E. coli, purified by the protocol of the disulphide-linked dimers (Ni-NTA, oxidised glutathione, anion exchange, SEC); not shown: His6, N-terminal, cleaved; Smt3, N-terminal, cleaved) LEARAALNQALEMKRQGKREKAQKLFMHALKMDPDFVDALTEFGIFSEEDKDIIQADYLYTRALTISPYHEKALVNRDRTLPLVEEIDQRYFSIIDSKVKKVMSIPKGNSALRRVMEETYYHHIYHTVAIEGNTLTLSEIRHILETRYAVPGKSLEEQNEVIGMHAAMKYINTTLVSRIGSVTISDVLEIHRRVLGYVDPVEAGRFRTTQVLVGHHIPPHPQDVEKQMQEFVQWLNSEEAMNLHPVEFAALAHYKLVYIHPFIDGNGRTSRLLMNLILMQAGYPPITIRKEQRSDYYHVLEAANEGDVRPFIRFIAKSTETTLDTLLFATTEYSVALPEAQP		binds	
FICD^G299S (aa 104-445) (domain or fragment, human, UniProt Q9BVA6 104-445, looked up, human FICD (HYPE), aa 104-445; Partially monomeric; also called Gly299Ser; source: E. coli T7 Express lysY/I^q, purified (Ni-NTA, on-column Ulp1 cleavage, anion exchange, SEC); not shown: His6, N-terminal, cleaved; Smt3, N-terminal, cleaved) LEARAALNQALEMKRQGKREKAQKLFMHALKMDPDFVDALTEFGIFSEEDKDIIQADYLYTRALTISPYHEKALVNRDRTLPLVEEIDQRYFSIIDSKVKKVMSIPKGNSALRRVMEETYYHHIYHTVAIEGNTLTLSEIRHILETRYAVPGKSLEEQNEVIGMHAAMKYINTTLVSRIGSVTISDVLEIHRRVLSYVDPVEAGRFRTTQVLVGHHIPPHPQDVEKQMQEFVQWLNSEEAMNLHPVEFAALAHYKLVYIHPFIDGNGRTSRLLMNLILMQAGYPPITIRKEQRSDYYHVLEAANEGDVRPFIRFIAKCTETTLDTLLFATTEYSVALPEAQP	9.5		
FICD^L258D-H363A (aa 104-445) (domain or fragment, human, UniProt Q9BVA6 104-445, looked up, human FICD (HYPE), aa 104-445; also called mFICD^H363A; source: E. coli T7 Express lysY/I^q, purified (Ni-NTA, on-column Ulp1 cleavage, anion exchange, SEC); not shown: His6, N-terminal, cleaved; Smt3, N-terminal, cleaved) LEARAALNQALEMKRQGKREKAQKLFMHALKMDPDFVDALTEFGIFSEEDKDIIQADYLYTRALTISPYHEKALVNRDRTLPLVEEIDQRYFSIIDSKVKKVMSIPKGNSALRRVMEETYYHHIYHTVAIEGNTLTLSEIRHILETRYAVPGKSDEEQNEVIGMHAAMKYINTTLVSRIGSVTISDVLEIHRRVLGYVDPVEAGRFRTTQVLVGHHIPPHPQDVEKQMQEFVQWLNSEEAMNLHPVEFAALAHYKLVYIAPFIDGNGRTSRLLMNLILMQAGYPPITIRKEQRSDYYHVLEAANEGDVRPFIRFIAKCTETTLDTLLFATTEYSVALPEAQP			binding result [2]: binds; binding result [3]: binds
